Paper PMC7438494, “Bedaquiline inhibits the yeast and human mitochondrial ATP synthases” (Communications Biology, 2020)

Key:
[1] = biological target: T1, subunit-a of the yeast mitochondrial F1Fo ATP synthase (S. cerevisiae, UniProt P00854 11-259); experiment: cryo-EM structure; purified yeast F1Fo reconstituted in nanodiscs (POPC and cardiolipin, 12% by weight), incubated with BDQ (30 uM on ice 30 min, or 5 uM at room temperature 10 min); reconstruction focused on Fo at 4.2 A, whole F1Fo at 3.9 A; settings: both partners purified
T1 construct: ATP synthase subunit a (Fo sector), S. cerevisiae mitochondrial; The His6 tag of strain USY006 is on ATP2 (beta subunit), not on this chain; also called a-subunit
T1 sequence (looked up): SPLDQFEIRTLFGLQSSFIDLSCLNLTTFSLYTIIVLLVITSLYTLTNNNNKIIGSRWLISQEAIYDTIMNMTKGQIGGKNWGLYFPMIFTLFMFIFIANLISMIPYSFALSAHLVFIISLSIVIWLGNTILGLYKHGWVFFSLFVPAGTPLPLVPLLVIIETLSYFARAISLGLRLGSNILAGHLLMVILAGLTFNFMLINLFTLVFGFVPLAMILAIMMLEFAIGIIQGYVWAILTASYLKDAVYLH

[2] = biological target: the molecule itself; experiment: as above

binding result [1]: binds
B1: subunit-c of the yeast mitochondrial F1Fo ATP synthase (c10-ring) (natural protein, S. cerevisiae, UniProt P61829 1-76, looked up)
chain: MQLVLAAKYIGAGISTIGLLGAGIGIAIVFAALINGVSRNPSIKDTVFPMAILGFALSEATGLFCLMVSFLLLFGV
notes: ATP synthase subunit c (subunit 9, Fo sector), S. cerevisiae mitochondrial; as modelled in PDB 6WTD (chains Q and R are two of the ten copies; initial model PDB 6CP7); also called c-subunit; c-ring; copies: 10
stoichiometry N [2]: 10
